Biological target: T1, polycystin-2 L677A N681A, HA-tagged (human, UniProt Q13563 1-968, L677A | N681A)
T1 sequence (looked up): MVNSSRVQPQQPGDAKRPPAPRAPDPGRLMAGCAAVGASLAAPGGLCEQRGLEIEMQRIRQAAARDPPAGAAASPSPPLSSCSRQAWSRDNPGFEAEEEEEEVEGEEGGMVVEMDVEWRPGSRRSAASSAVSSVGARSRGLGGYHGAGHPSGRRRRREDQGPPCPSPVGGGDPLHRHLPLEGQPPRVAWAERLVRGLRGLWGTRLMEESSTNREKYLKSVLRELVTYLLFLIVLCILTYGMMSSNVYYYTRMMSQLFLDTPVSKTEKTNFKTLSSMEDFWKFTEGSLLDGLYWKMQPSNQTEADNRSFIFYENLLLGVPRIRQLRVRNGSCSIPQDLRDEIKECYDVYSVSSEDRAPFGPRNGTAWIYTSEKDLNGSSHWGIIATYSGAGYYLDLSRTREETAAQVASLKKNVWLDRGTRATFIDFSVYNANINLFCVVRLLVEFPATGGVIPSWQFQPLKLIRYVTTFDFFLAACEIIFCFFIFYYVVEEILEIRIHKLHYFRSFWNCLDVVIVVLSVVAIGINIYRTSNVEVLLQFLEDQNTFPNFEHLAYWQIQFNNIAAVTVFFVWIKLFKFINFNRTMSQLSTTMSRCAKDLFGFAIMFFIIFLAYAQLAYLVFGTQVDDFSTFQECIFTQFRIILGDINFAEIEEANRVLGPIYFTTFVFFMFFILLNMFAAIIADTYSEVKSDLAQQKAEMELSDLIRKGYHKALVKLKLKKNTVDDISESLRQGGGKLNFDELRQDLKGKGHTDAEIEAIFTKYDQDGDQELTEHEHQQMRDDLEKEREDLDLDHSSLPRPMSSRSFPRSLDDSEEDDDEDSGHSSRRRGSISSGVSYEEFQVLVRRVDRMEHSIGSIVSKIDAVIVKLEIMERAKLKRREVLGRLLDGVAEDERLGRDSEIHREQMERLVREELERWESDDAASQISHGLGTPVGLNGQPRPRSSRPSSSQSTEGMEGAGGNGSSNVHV
Experiment: cell-based or functional assay

B1: C-terminal fragment of polycystin-1 R4100A R4107A H4111A (PC1-CTF AAA), V5-tagged (domain or fragment, human, UniProt P98161 3049-4303, looked up)
chain: TAFGASLFVPPSHVRFVFPEPTADVNYIVMLTCAVCLVTYMVMAAILHKLDQLDASRGRAIPFCGQRGRFKYEILVKTGWGRGSGTTAHVGIMLYGVDSRSGHRHLDGDRAFHRNSLDIFRIATPHSLGSVWKIRVWHDNKGLSPAWFLQHVIVRDLQTARSAFFLVNDWLSVETEANGGLVEKEVLAASDAALLRFRRLLVAELQRGFFDKHIWLSIWDRPPRSRFTRIQRATCCVLLICLFLGANAVWYGAVGDSAYSTGHVSRLSPLSVDTVAVGLVSSVVVYPVYLAILFLFRMSRSKVAGSPSPTPAGQQVLDIDSCLDSSVLDSSFLTFSGLHAEQAFVGQMKSDLFLDDSKSLVCWPSGEGTLSWPDLLSDPSIVGSNLRQLARGQAGHGLGPEEDGFSLASPYSPAKSFSASDEDLIQQVLAEGVSSPAPTQDTHMETDLLSSLSSTPGEKTETLALQRLGELGPPSPGLNWEQPQAARLSRTGLVEGLRKRLLPAWCASLAHGLSLLLVAVAVAVSGWVGASFPPGVSVAWLLSSSASFLASFLGWEPLKVLLEALYFSLVAKRLHPDEDDTLVESPAVTPVSARVPRVRPPHGFALFLAKEEARKVKRLHGMLRSLLVYMLFLLVTLLASYGDASCHGHAYRLQSAIKQELHSRAFLAITRSEELWPWMAHVLLPYVHGNQSSPELGPPRLRQVRLQEALYPDPPGPRVHTCSAAGGFSTSDYDVGWESPHNGSGTWAYSAPDLLGAWSWGSCAVYDSGGYVQELGLSLEESRDRLRFLQLHNWLDNRSRAVFLELTRYSPAVGLHAAVTLRLEFPAAGRALAALSVRPFALRRLSAGLSLPLLTSVCLLLFAVHFAVAEARTWHREGRWRVLRLGAWARWLLVALTAATALVRLAQLGAADRQWTRFVRGRPRRFTSFDQVAQLSSAARGLAASLLFLLLVKAAQQLRFVRQWSVFGKTLCRALPELLGVTLGLVVLGVAYAQLAILLVSSCVDSLWSVAQALLVLCPGTGLSTLCPAESWHLSPLLCVGLWALRLWGALALGAVILAWRYAALRGELYRPAWEPQDYEMVELFLRRLRLWMGLSKVKEFRHKVRFEGMEPLPSRSSRGSKVSPDVPPPSAGSDASHPSTSSSQLDGLSVSLGRLGTRCEPEPSRLQAVFEALLTQFDRLNQATEDVYQLEQQLHSLQGRRSSRAPAGSSRGPSPGLRPALPSRLARASRGVDLATGPSRTPLRAKNKVHPSST
PC2/PC1 molar ratio of injected cRNA (2.5 pmol PC2 AA, 0.77 pmol PC1-CTF AAA) at which the shift of the reversal potential saturated: 3.2 PC2 per PC1 (molar ratio of cRNA)

Reference: PMC12183636, “Ion channel function of polycystin‐2/polycystin‐1 heteromer revealed by structure‐guided mutagenesis” (Febs Letters, 2025)
